Experimental data taken from IntAct's records for PubMed 17167421.

B1: Synaptotagmin-2 (Rattus norvegicus (Rat)), P29101 (parent)
chain: MRNIFKRNQEPIVAPATTTATMPLAPAAPADNSTESTGTGESQEDMFAKLKDKFFNEINKIPLPPWALIAMAVVAGLLLLTCCFCICKKCCCKKKKNKKEKGKGMKNAMNMKDMKGGQDDDDAETGLTEGEGEGEEEKEPENLGKLQFSLDYDFQANQLTVGVLQAAELPALDMGGTSDPYVKVFLLPDKKKKYETKVHRKTLNPAFNETFTFKVPYQELGGKTLVMAIYDFDRFSKHDIIGEVKVPMNTVDLGQPIEEWRDLQGGEKEEPEKLGDICTSLRYVPTAGKLTVCILEAKNLKKMDVGGLSDPYVKIHLMQNGKRLKKKKTTVKKKTLNPYFNESFSFEIPFEQIQKVQVVVTVLDYDKLGKNEAIGKIFVGSNATGTELRHWSDMLANPRRPIAQWHSLKPEEEVDALLGKNK

Variants of: B1
Settings: with bxb_clobo botB
With MRNIFKRNQEPIVAPATTTATMPLAPAAPADNSTESTGTGESQEDMFAKLKDKAFNEINKIPLPPWALIAMAVVAGLLLLTCCFCICKKCCCKKKKNKKEKGKGMKNAMNMKDMKGGQDDDDAETGLTEGEGEGEEEKEPENLGKLQFSLDYDFQANQLTVGVLQAAELPALDMGGTSDPYVKVFLLPDKKKKYETKVHRKTLNPAFNETFTFKVPYQELGGKTLVMAIYDFDRFSKHDIIGEVKVPMNTVDLGQPIEEWRDLQGGEKEEPEKLGDICTSLRYVPTAGKLTVCILEAKNLKKMDVGGLSDPYVKIHLMQNGKRLKKKKTTVKKKTLNPYFNESFSFEIPFEQIQKVQVVVTVLDYDKLGKNEAIGKIFVGSNATGTELRHWSDMLANPRRPIAQWHSLKPEEEVDALLGKNK [F54A] the “effect of a mutation on the interaction” value was “disrupting interaction strength”.
In the case of MRNIFKRNQEPIVAPATTTATMPLAPAAPADNSTESTGTGESQEDMAAKLKDKFFNEINKIPLPPWALIAMAVVAGLLLLTCCFCICKKCCCKKKKNKKEKGKGMKNAMNMKDMKGGQDDDDAETGLTEGEGEGEEEKEPENLGKLQFSLDYDFQANQLTVGVLQAAELPALDMGGTSDPYVKVFLLPDKKKKYETKVHRKTLNPAFNETFTFKVPYQELGGKTLVMAIYDFDRFSKHDIIGEVKVPMNTVDLGQPIEEWRDLQGGEKEEPEKLGDICTSLRYVPTAGKLTVCILEAKNLKKMDVGGLSDPYVKIHLMQNGKRLKKKKTTVKKKTLNPYFNESFSFEIPFEQIQKVQVVVTVLDYDKLGKNEAIGKIFVGSNATGTELRHWSDMLANPRRPIAQWHSLKPEEEVDALLGKNK [F47A], the “effect of a mutation on the interaction” value is reported as “disrupting interaction strength”.
With MRNIFKRNQEPIVAPATTTATMPLAPAAPADNSTESTGTGESQEDMFAKAKDKFFNEINKIPLPPWALIAMAVVAGLLLLTCCFCICKKCCCKKKKNKKEKGKGMKNAMNMKDMKGGQDDDDAETGLTEGEGEGEEEKEPENLGKLQFSLDYDFQANQLTVGVLQAAELPALDMGGTSDPYVKVFLLPDKKKKYETKVHRKTLNPAFNETFTFKVPYQELGGKTLVMAIYDFDRFSKHDIIGEVKVPMNTVDLGQPIEEWRDLQGGEKEEPEKLGDICTSLRYVPTAGKLTVCILEAKNLKKMDVGGLSDPYVKIHLMQNGKRLKKKKTTVKKKTLNPYFNESFSFEIPFEQIQKVQVVVTVLDYDKLGKNEAIGKIFVGSNATGTELRHWSDMLANPRRPIAQWHSLKPEEEVDALLGKNK [L50A] the “effect of a mutation on the interaction” value was “decreasing interaction strength”.
For MRNIFKRNQEPIVAPATTTATMPLAPAAPADNSTESTGTGESQEDMFAKLKDKFFNKINKIPLPPWALIAMAVVAGLLLLTCCFCICKKCCCKKKKNKKEKGKGMKNAMNMKDMKGGQDDDDAETGLTEGEGEGEEEKEPENLGKLQFSLDYDFQANQLTVGVLQAAELPALDMGGTSDPYVKVFLLPDKKKKYETKVHRKTLNPAFNETFTFKVPYQELGGKTLVMAIYDFDRFSKHDIIGEVKVPMNTVDLGQPIEEWRDLQGGEKEEPEKLGDICTSLRYVPTAGKLTVCILEAKNLKKMDVGGLSDPYVKIHLMQNGKRLKKKKTTVKKKTLNPYFNESFSFEIPFEQIQKVQVVVTVLDYDKLGKNEAIGKIFVGSNATGTELRHWSDMLANPRRPIAQWHSLKPEEEVDALLGKNK [E57K], the “effect of a mutation on the interaction” value was “disrupting interaction strength”.
MRNIFKRNQEPIVAPATTTATMPLAPAAPADNSTESTGTGESQEDMFAKLKDKFANEINKIPLPPWALIAMAVVAGLLLLTCCFCICKKCCCKKKKNKKEKGKGMKNAMNMKDMKGGQDDDDAETGLTEGEGEGEEEKEPENLGKLQFSLDYDFQANQLTVGVLQAAELPALDMGGTSDPYVKVFLLPDKKKKYETKVHRKTLNPAFNETFTFKVPYQELGGKTLVMAIYDFDRFSKHDIIGEVKVPMNTVDLGQPIEEWRDLQGGEKEEPEKLGDICTSLRYVPTAGKLTVCILEAKNLKKMDVGGLSDPYVKIHLMQNGKRLKKKKTTVKKKTLNPYFNESFSFEIPFEQIQKVQVVVTVLDYDKLGKNEAIGKIFVGSNATGTELRHWSDMLANPRRPIAQWHSLKPEEEVDALLGKNK [F55A] was tested, and the “effect of a mutation on the interaction” value was “disrupting interaction strength”.
